Test results taken from doi:10.1101/501098 (bioRxiv, 2018).

Biological target: Histone H4 (Xenopus laevis), in the nucleosome (Xenopus laevis, UniProt P62799 2-103)
Test: cryo-EM structure

binding result: binds
B1: Dot1L(2-416) (domain or fragment)
chain: GEKLELRLKSPVGAEPAVYPWPLPVYDKHHDAAHEIIETIRWVCEEIPDLKLAMENYVLIDYDTKSFESMQRLCDKYNRAIDSIHQLWKGTTQPMKLNTRPSTGLLRHILQQVYNHSVTDPEKLNNYEPFSPEVYGETSFDLVAQMIDEIKMTDDDLFVDLGSGVGQVVLQVAAATNCKHHYGVEKADIPAKYAETMDREFRKWMKWYGKKHAEYTLERGDFLSEEWRERIANTSVIFVNNFAFGPEVDHQLKERFANMKEGGRIVSSKPFAPLNFRINSRNLSDIGTIMRVVELSPLKGSVSWTGKPVSYYLHTIDRTILENYFSSLKNPKLREEQEAARRRQQRESKSNAATPTKGPEGKVAGPADAPMDSGAEEEKAGAATVKKPSPSKARKKKLNKKGRKMAGRKRGRPKK
